Article PMC9917868

Columns and labels:
[1] = molecular target: VAP, endogenous in cultured rat hippocampal neurons (UniProt Q9Z270); experiment: co-immunoprecipitation (IP: NRG2 (V5)), Western blot densitometry; conditions: AAV-transduced neurons; n = four independent experiments; parent: 1.00; read off a plot
[2] = molecular target: crNRG2 (cleavage-resistant variant of proNRG2) (human) (UniProt O14511); experiment: co-IP; co-IP of VAP with crNRG2 from transduced rat hippocampal neurons; neurons untreated (Ctrl), treated 10 min with NMDA (50 µM), or with NMDA and D-AP5 (50 µM); VAP signals normalized to Ctrl = 1
[3] = molecular target: VAP, endogenous in cultured rat hippocampal neurons (UniProt Q9Z270); experiment: GST pulldown with peptide competition, Western blot densitometry (VAP left on GST-NRG2_CD bait; lower signal = stronger competition by the peptide); conditions: lysate of untransduced neurons, n = three independent experiments, parent: est. 0.14, read off a plot, scale: normalized VAP signal

Question: For “V5 epitope-tagged proNRG2 (wild type), expressed in cultured rat hippocampal neurons (from UniProt O14511) S494A; S497A; S502A; T506A; S511A; S613A; T625A; T626A”, which ratio to parent [1] is on record?
Answer: 0

Question: For “VAP, endogenous in cultured rat hippocampal neurons (from UniProt Q9Z270 1-249) (natural protein)”, which normalized VAP co-IP signal after 10 min NMDA 50 µM (Ctrl = 1) (relative to Ctrl = 1) [2] is on record?
Answer: 0.31

Question: And the normalized VAP co-IP signal after NMDA with D-AP5 50 µM (Ctrl = 1) (relative to Ctrl = 1) [2]?
Answer: 1.1

Question: “V5 epitope-tagged proNRG2 (wild type), expressed in cultured rat hippocampal neurons (from UniProt O14511) S494A; S497A; S502A; T506A; S511A” was tested. Which ratio to parent [1] did it give?
Answer: 0

Question: How did the ratio to parent [1] turn out when “V5 epitope-tagged proNRG2 (wild type), expressed in cultured rat hippocampal neurons (from UniProt O14511) S613A; T625A; T626A” was run?
Answer: 0.73

Question: With “D-WT peptide (wild-type D-box peptide of NRG2) D620K; E622K” as the substance, how does the response [3] read?
Answer: 0.63
